Measurements reported in US20160002357A1 (Pfizer, published 2016).
Substitutions are numbered along the chain they refer to.

B1: anti-P-cadherin scFv 153 alanine-mutant H1.1-Ala (scFv, V domains shown)
VH: EVQLVQSGAEVKKPGASVKVSCKASAYTFTSYGISWVRQAPGQGLEWMGWISAYNGNTNYAQKLQGRVTMTTDTSTSTAYMELRSLRSDDTAVYYCATIDTANAFGIWGQGTMVTVSS
VL: QSVLTQPPSVSAAPGQKVTISCSGSSSNIGNNYVSWYQQLPGTAPKLLIYDNNKRPSGIPDRFSGSKSGTSATLGITGLQTGDEADYYCGTWDSSLSGVVFGGGTKLTVL
notes: scFv on phage
B2: anti-P-cadherin scFv 153 alanine-mutant H1.9-Ala (scFv, V domains shown)
VH: B1 VH with A26G, I34A
VL: B1 VL
notes: scFv on phage
B3: anti-P-cadherin scFv 153 alanine-mutant H1.3-Ala (scFv, V domains shown)
VH: B1 VH with A26G, T28A
VL: B1 VL
notes: scFv on phage
B4: anti-P-cadherin scFv 153 alanine-mutant H2.1-Ala (scFv, V domains shown)
VH: B1 VH with A26G, W50A
VL: B1 VL
notes: scFv on phage
B5: anti-P-cadherin scFv 153 alanine-mutant H1.2-Ala (scFv, V domains shown)
VH: B1 VH with A26G, Y27A
VL: B1 VL
notes: scFv on phage
B6: anti-P-cadherin scFv 153 alanine-mutant H1.10-Ala (scFv, V domains shown)
VH: B1 VH with A26G, S35A
VL: B1 VL
notes: scFv on phage
B7: anti-P-cadherin scFv 153 alanine-mutant H1.5-Ala (scFv, V domains shown)
VH: B1 VH with A26G, T30A
VL: B1 VL
notes: scFv on phage
B8: anti-P-cadherin scFv 153 alanine-mutant H1.8-Ala (scFv, V domains shown)
VH: B1 VH with A26G, G33A
VL: B1 VL
notes: scFv on phage
B9: anti-P-cadherin scFv 153 alanine-mutant H1.6-Ala (scFv, V domains shown)
VH: B1 VH with A26G, S31A
VL: B1 VL
notes: scFv on phage
B10: anti-P-cadherin scFv 153 alanine-mutant H1.7-Ala (scFv, V domains shown)
VH: B1 VH with A26G, Y32A
VL: B1 VL
notes: scFv on phage
B11: anti-P-cadherin scFv 153 alanine-mutant H1.4-Ala (scFv, V domains shown)
VH: B1 VH with A26G, F29A
VL: B1 VL
notes: scFv on phage
B12: anti-P-cadherin scFv 153 alanine-mutant H2.2-Ala (scFv, V domains shown)
VH: B1 VH with A26G, I51A
VL: B1 VL
notes: scFv on phage
B13: anti-P-cadherin scFv 153 alanine-mutant H2.3-Ala (scFv, V domains shown)
VH: B1 VH with A26G, S52A
VL: B1 VL
notes: scFv on phage

Target: T1, P-cadherin-ECD1-3-Fc protein (human P-cadherin-Fc) (human, UniProt P22223 108-440)
T1 construct: Construct was expressed with signal peptide and pro-peptide (PACE co-transfected to process the propeptide); not shown: hinge and CH2 and CH3 domains of human IgG1
T1 sequence (P22223 108-440): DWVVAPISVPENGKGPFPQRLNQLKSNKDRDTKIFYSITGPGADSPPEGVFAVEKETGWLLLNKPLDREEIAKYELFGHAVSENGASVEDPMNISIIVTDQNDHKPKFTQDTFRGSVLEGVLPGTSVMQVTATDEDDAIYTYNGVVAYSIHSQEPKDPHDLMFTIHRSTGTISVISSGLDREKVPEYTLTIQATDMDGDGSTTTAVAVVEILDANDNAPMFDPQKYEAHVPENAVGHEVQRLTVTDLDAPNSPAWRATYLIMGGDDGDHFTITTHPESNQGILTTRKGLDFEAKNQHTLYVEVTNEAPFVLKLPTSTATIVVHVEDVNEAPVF
Test: phage scFv ELISA, coated P-cadherin-ECD1-3-Fc
Method: P-cadherin-ECD1-3-Fc protein or negative control protein was coated overnight at 4° C. on 96-well Nunc Maxisorp® plates (Thermo Fisher Scientific, Madison, Conn.) at a concentration of 2 μg/mL in PBS+Ca²⁺ and Mg²⁺. Plates were washed three times using PBS+Ca²⁺ and Mg²⁺ and blocked for 1 hour at room temperature in 3% milk/PBS+Ca²⁺ and Mg²⁺. Phage samples prepared as described above were added to the blocked plates for 1 hour at room temperature. Plates were washed three times with PBS+Ca²⁺ and Mg²⁺ prior to the addition of secondary antibody (anti M13-HRP 1:2000, GE Healthcare, Piscataway, N.J.). Plates were incubated for a further 1 hour at room temperature and washed six times with PBS+Ca²⁺ and Mg²⁺. Signal was developed using TMB (SurModics, Eden Prairie, Minn.), the reaction stopped with H₂SO₄ and the absorbance read at 450 nm on an EnVision® plate reader (Perkin Elmer, Waltham, Mass.).

Row | Binder | % of binding of Clone #153 to human P-cadherin-Fc [%] | Human P-cadherin-Fc binding (OD450) | Z Score
1 | B1 | 135 | 1.79 | 0.7
2 | B2 | 167 | 2.21 | 1.4
3 | B3 | 174 | 2.3 | 1.6
4 | B4 | 103 | 1.37 | 0.1
5 | B5 | 179 | 2.36 | 1.7
6 | B6 | 161 | 2.13 | 1.3
7 | B7 | 155 | 2.05 | 1.2
8 | B8 | 27 | 0.36 | -1.5
9 | B9 | 149 | 1.97 | 1
10 | B10 | 129 | 1.71 | 0.6
11 | B11 | 177 | 2.33 | 1.6
12 | B12 | 166 | 2.2 | 1.4
13 | B13 | 138 | 1.83 | 0.8
